{
  "source": "patent US20210107996A1",
  "about": "(PROMAB BIOTECHNOLOGIES, published 2021)",
  "binders": {"B1": {"name": "mouse monoclonal PLAP antibody (clone H17E2) (antibody, V domains shown)", "VH": "QVQLKESGPGLVAPSQSLSITCTVSGFSLTSYGVSWVRQPPRKGLEWLGVIWEDGSTNYHSALISRLSINKDNSKSQVFLKLNSLQTDDTATYYCAKPHYGSSYVGAMEYWGQGTSVTVSS", "VL": "DIQMTQSPASLTASVGETVTITCRASENIYSYVAWYQQKQGKSPQFLVYNAKSLAEGVPSRFSGSGSGTQFSLKINSLQPEDFGNYYCQHHYVSPWTFGGGTKLEIR", "notes": "Bought whole mouse monoclonal antibody (Thermo Fisher / Ximbio); also called PLAP antibody H17E2; mouse anti-PLAP antibody"}},
  "biological_target": "T1, recombinant PLAP extracellular domain protein (Sino Biological) (human, UniProt P05187 23-506)",
  "T1 construct": "Bought protein; also called purified recombinant PLAP protein; PLAP antigen",
  "T1 sequence (P05187 23-506)": "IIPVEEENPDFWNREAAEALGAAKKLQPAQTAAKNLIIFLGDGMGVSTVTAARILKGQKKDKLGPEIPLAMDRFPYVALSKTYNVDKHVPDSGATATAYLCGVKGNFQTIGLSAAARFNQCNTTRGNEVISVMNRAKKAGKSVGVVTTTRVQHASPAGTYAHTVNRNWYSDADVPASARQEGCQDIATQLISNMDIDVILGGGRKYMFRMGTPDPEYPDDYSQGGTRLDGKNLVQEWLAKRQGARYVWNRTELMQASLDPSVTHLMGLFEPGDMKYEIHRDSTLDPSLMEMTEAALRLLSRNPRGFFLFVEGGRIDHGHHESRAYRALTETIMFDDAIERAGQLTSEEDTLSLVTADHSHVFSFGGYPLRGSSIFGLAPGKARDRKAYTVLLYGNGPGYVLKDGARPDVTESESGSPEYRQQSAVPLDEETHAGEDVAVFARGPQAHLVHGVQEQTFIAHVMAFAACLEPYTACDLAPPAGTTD",
  "assay": "BLI (Blitz ForteBio); antibody captured on anti-mouse-capture biosensors, PLAP antigen in solution",
  "description": "The binding of PLAP antibody with recombinant PLAP extracellular domain protein from Sino Biological was performed using Blitz ForteBio system as described. In brief, anti-mouse-capture (AMC) biosensors were soaked in kinetics buffer (PBS, 0.1% Tween, 0.05% BSA) for 10 min and then with mouse anti-PLAP antibody at 0.1 mg/mL in same buffer for 30 min. After washing, biosensors were used to bind the PLAP antigen at different concentrations. The Kd was detected with Blitz system software.",
  "data": [
    {"binder": "B1", "values": [
      {"measurement": "Kd", "result": 3.2, "unit": "nM"}
    ]}
  ]
}
